Data reported in patent US20160264649A1.

Columns and labels:
Assay in all cases: cell-based or functional assay
[1] = biological target: HIV-1 Env of isolate MGRM-Chronic-B-017 (HIV-1)
[2] = biological target: HIV-1 Env of isolate CAAN.A2 (HIV-1)
[3] = biological target: HIV-1 Env of isolate MGRM-Chronic-B-023 (HIV-1)
[4] = biological target: HIV-1 Env of isolate MG RM-C-020 (HIV-1)
[5] = biological target: HIV-1 Env of isolate JRCSF (HIV-1) (UniProt P20871)
[6] = biological target: HIV-1 Env of isolate 97ZA012 (HIV-1)
[7] = biological target: HIV-1 Env of isolate MGRM-Chronic-B-018 (HIV-1)
[8] = biological target: HIV-1 Env of isolate MG RM-C-024 (HIV-1)
[9] = biological target: HIV-1 Env of isolate MGRM-Chronic-B-008 (HIV-1)
[10] = biological target: HIV-1 Env of isolate QH0692.42 (HIV-1)
[11] = biological target: HIV-1 Env of isolate 92 BR 020 (HIV-1)
[12] = biological target: HIV-1 Env of isolate NL43 (HIV-1)
[13] = biological target: HIV-1 Env of isolate MGRM-Chronic-B-004 (HIV-1)
[14] = biological target: HIV-1 Env of isolate 93TH305 (HIV-1)
[15] = biological target: HIV-1 Env of isolate MGRM-Chronic-B-012 (HIV-1)
[16] = biological target: HIV-1 Env of isolate MGRM-Chronic-B-003 (HIV-1)
[17] = biological target: HIV-1 Env of isolate MGRM-Chronic-B-020 (HIV-1)
[18] = biological target: HIV-1 Env of isolate MGRM-Chronic-B-010 (HIV-1)
[19] = biological target: HIV-1 Env of isolate MG RM-C-027 (HIV-1)
[20] = biological target: HIV-1 Env of isolate MG RM-C-025 (HIV-1)
[21] = biological target: HIV-1 Env of isolate TRO.11 (HIV-1)
[22] = biological target: HIV-1 Env of isolate MGRM-Chronic-B-024 (HIV-1)
[23] = biological target: HIV-1 Env of isolate 93IN905 (HIV-1)
[24] = biological target: HIV-1 Env of isolate PVO.4 (HIV-1)
[25] = biological target: HIV-1 Env of isolate MG RM-C-028 (HIV-1)
[26] = biological target: HIV-1 Env of isolate VLGCB3 (HIV-1)
[27] = biological target: HIV-1 Env of isolate APV_17 (HIV-1)
[28] = biological target: HIV-1 Env of isolate MG RM-C-026 (HIV-1)
[29] = biological target: HIV-1 Env of isolate THR0.18 (HIV-1)
[30] = biological target: HIV-1 Env of isolate MG RM-C-022 (HIV-1)
[31] = biological target: HIV-1 Env of isolate 98IN022 (HIV-1)
[32] = biological target: HIV-1 Env of isolate SC422661.8 (HIV-1)
[33] = biological target: HIV-1 Env of isolate APV_6 (HIV-1)
[34] = biological target: HIV-1 Env of isolate MGRM-Chronic-B-002 (HIV-1)
[35] = biological target: HIV-1 Env of isolate 6535.3 (HIV-1)
[36] = biological target: HIV-1 Env of isolate TRJ04551.58 (HIV-1)
[37] = biological target: HIV-1 Env of isolate MG RM-C-023 (HIV-1)
[38] = biological target: HIV-1 Env of isolate 93MW959 (HIV-1)
[39] = biological target: HIV-1 Env of isolate SF162 (HIV-1) (UniProt P19550)
[40] = biological target: HIV-1 Env of isolate MGRM-Chronic-B-011 (HIV-1)
[41] = biological target: HIV-1 Env of isolate MGRM-Chronic-B-001 (HIV-1)
[42] = biological target: HIV-1 Env of isolate APV_13 (HIV-1)
[43] = biological target: HIV-1 Env of isolate JRFL (HIV-1)

Substance: PGT-127 monoclonal antibody (5145_B14)
- neutralization IC50 [1]: > 50 µg/mL
- neutralization IC50 [2]: 0.371 µg/mL
- neutralization IC50 [3]: > 50 µg/mL
- neutralization IC50 [4]: > 50 µg/mL
- neutralization IC50 [5]: 0.018 µg/mL
- neutralization IC50 [6]: > 50 µg/mL
- neutralization IC50 [7]: 1.9 µg/mL
- neutralization IC50 [8]: > 50 µg/mL
- neutralization IC50 [9]: 21.5 µg/mL
- neutralization IC50 [10]: 0.129 µg/mL
- neutralization IC50 [11]: 0.059 µg/mL
- neutralization IC50 [12]: > 50 µg/mL
- neutralization IC50 [13]: 0.018 µg/mL
- neutralization IC50 [14]: 0.017 µg/mL
- neutralization IC50 [15]: 0.075 µg/mL
- neutralization IC50 [16]: 0.12 µg/mL
- neutralization IC50 [17]: 0.05 µg/mL
- neutralization IC50 [18]: 0.019 µg/mL
- neutralization IC50 [19]: > 50 µg/mL
- neutralization IC50 [20]: > 50 µg/mL
- neutralization IC50 [21]: 0.079 µg/mL
- neutralization IC50 [22]: > 50 µg/mL
- neutralization IC50 [23]: 0.024 µg/mL
- neutralization IC50 [24]: 0.164 µg/mL
- neutralization IC50 [25]: 7.57 µg/mL
- neutralization IC50 [26]: 0.022 µg/mL
- neutralization IC50 [27]: 10.4 µg/mL
- neutralization IC50 [28]: 0.014 µg/mL
- neutralization IC50 [29]: > 50 µg/mL
- neutralization IC50 [30]: 0.41 µg/mL
- neutralization IC50 [31]: 19.2 µg/mL
- neutralization IC50 [32]: 36.7 µg/mL
- neutralization IC50 [33]: 0.04 µg/mL
- neutralization IC50 [34]: 0.279 µg/mL
- neutralization IC50 [35]: 0.02 µg/mL
- neutralization IC50 [36]: 0.063 µg/mL
- neutralization IC50 [37]: 1.08 µg/mL
- neutralization IC50 [38]: 6.95 µg/mL
- neutralization IC50 [39]: 0.019 µg/mL
- neutralization IC50 [40]: 0.297 µg/mL
- neutralization IC50 [41]: > 50 µg/mL
- neutralization IC50 [42]: 0.026 µg/mL
- neutralization IC50 [43]: 0.029 µg/mL

Substance: PGT-121 monoclonal antibody (4838_L06; 4873_E03)
- neutralization IC50 [1]: > 50 µg/mL
- neutralization IC50 [2]: 0.011 µg/mL
- neutralization IC50 [3]: 0.005 µg/mL
- neutralization IC50 [4]: > 50 µg/mL
- neutralization IC50 [5]: 0.027 µg/mL
- neutralization IC50 [6]: 0.002 µg/mL
- neutralization IC50 [7]: > 50 µg/mL
- neutralization IC50 [8]: 0.052 µg/mL
- neutralization IC50 [9]: 0.007 µg/mL
- neutralization IC50 [10]: 0.823 µg/mL
- neutralization IC50 [11]: 0.014 µg/mL
- neutralization IC50 [12]: > 50 µg/mL
- neutralization IC50 [13]: 0.009 µg/mL
- neutralization IC50 [14]: 0.007 µg/mL
- neutralization IC50 [15]: 0.036 µg/mL
- neutralization IC50 [16]: 0.011 µg/mL
- neutralization IC50 [17]: 0.004 µg/mL
- neutralization IC50 [18]: 0.014 µg/mL
- neutralization IC50 [19]: 0.011 µg/mL
- neutralization IC50 [20]: 46.8 µg/mL
- neutralization IC50 [21]: 0.008 µg/mL
- neutralization IC50 [22]: 0.195 µg/mL
- neutralization IC50 [23]: 0.005 µg/mL
- neutralization IC50 [24]: 0.137 µg/mL
- neutralization IC50 [25]: 0.472 µg/mL
- neutralization IC50 [26]: 0.005 µg/mL
- neutralization IC50 [27]: 0.066 µg/mL
- neutralization IC50 [28]: 0.002 µg/mL
- neutralization IC50 [29]: > 50 µg/mL
- neutralization IC50 [30]: 0.015 µg/mL
- neutralization IC50 [31]: 0.007 µg/mL
- neutralization IC50 [32]: 0.098 µg/mL
- neutralization IC50 [34]: 0.386 µg/mL
- neutralization IC50 [35]: 0.005 µg/mL
- neutralization IC50 [36]: 7.09 µg/mL
- neutralization IC50 [37]: 0.017 µg/mL
- neutralization IC50 [38]: 0.013 µg/mL
- neutralization IC50 [39]: 0.005 µg/mL
- neutralization IC50 [40]: > 50 µg/mL
- neutralization IC50 [41]: 0.102 µg/mL
- neutralization IC50 [42]: 0.251 µg/mL
- neutralization IC50 [43]: 0.021 µg/mL

Substance: PGT-126 monoclonal antibody (5141_B17)
- neutralization IC50 [1]: > 50 µg/mL
- neutralization IC50 [2]: 0.273 µg/mL
- neutralization IC50 [3]: > 50 µg/mL
- neutralization IC50 [4]: > 50 µg/mL
- neutralization IC50 [5]: 0.008 µg/mL
- neutralization IC50 [6]: 0.042 µg/mL
- neutralization IC50 [7]: 0.052 µg/mL
- neutralization IC50 [8]: > 50 µg/mL
- neutralization IC50 [9]: 5.89 µg/mL
- neutralization IC50 [10]: 0.048 µg/mL
- neutralization IC50 [11]: 0.015 µg/mL
- neutralization IC50 [12]: > 50 µg/mL
- neutralization IC50 [13]: 0.01 µg/mL
- neutralization IC50 [14]: 0.013 µg/mL
- neutralization IC50 [15]: 0.027 µg/mL
- neutralization IC50 [16]: 0.041 µg/mL
- neutralization IC50 [17]: 0.021 µg/mL
- neutralization IC50 [18]: 0.005 µg/mL
- neutralization IC50 [19]: 15.6 µg/mL
- neutralization IC50 [20]: 0.786 µg/mL
- neutralization IC50 [21]: 0.041 µg/mL
- neutralization IC50 [22]: > 50 µg/mL
- neutralization IC50 [23]: 0.015 µg/mL
- neutralization IC50 [24]: 0.017 µg/mL
- neutralization IC50 [25]: 0.196 µg/mL
- neutralization IC50 [26]: 0.007 µg/mL
- neutralization IC50 [27]: 0.353 µg/mL
- neutralization IC50 [28]: 0.007 µg/mL
- neutralization IC50 [29]: > 50 µg/mL
- neutralization IC50 [30]: 0.96 µg/mL
- neutralization IC50 [31]: 0.279 µg/mL
- neutralization IC50 [32]: 0.119 µg/mL
- neutralization IC50 [33]: 0.007 µg/mL
- neutralization IC50 [34]: 0.078 µg/mL
- neutralization IC50 [35]: 0.022 µg/mL
- neutralization IC50 [36]: 0.025 µg/mL
- neutralization IC50 [37]: 0.065 µg/mL
- neutralization IC50 [38]: 9.44 µg/mL
- neutralization IC50 [39]: 0.003 µg/mL
- neutralization IC50 [40]: 0.108 µg/mL
- neutralization IC50 [41]: > 50 µg/mL
- neutralization IC50 [42]: 0.012 µg/mL
- neutralization IC50 [43]: 0.014 µg/mL
